From publication PMC9867282

Biological target: cytosolic carboxypeptidase 6 (CCP6), endogenous (human (endogenous in HEK 293T)) (UniProt Q5VU57)
Test: proximity ligation; Duolink PLA in HEK 293T cells fixed with 4% paraformaldehyde; primary antibodies against the two proteins; confocal microscopy; three independent experiments, at least 75 cells in total

Chain of UniProt Q5VU57 (Q5VU57 whole entry): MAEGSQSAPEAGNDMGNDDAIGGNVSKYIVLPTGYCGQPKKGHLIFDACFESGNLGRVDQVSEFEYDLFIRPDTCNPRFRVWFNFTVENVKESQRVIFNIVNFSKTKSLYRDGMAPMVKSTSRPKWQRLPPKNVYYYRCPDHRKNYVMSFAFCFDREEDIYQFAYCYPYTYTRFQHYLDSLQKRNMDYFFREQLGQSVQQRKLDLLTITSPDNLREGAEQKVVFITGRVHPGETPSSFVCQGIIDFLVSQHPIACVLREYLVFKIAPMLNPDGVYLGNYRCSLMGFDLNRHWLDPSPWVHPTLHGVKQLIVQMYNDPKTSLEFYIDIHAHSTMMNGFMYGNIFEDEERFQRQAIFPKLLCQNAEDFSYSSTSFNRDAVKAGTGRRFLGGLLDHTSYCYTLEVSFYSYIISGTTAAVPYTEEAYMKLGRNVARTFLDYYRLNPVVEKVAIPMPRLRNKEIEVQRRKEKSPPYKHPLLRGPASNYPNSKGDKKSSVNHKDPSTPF

Row | Substance | percent of cells with a positive PLA signal [%]
1 | Progesterone-induced-blocking factor 1 PIBF1 (from UniProt Q8WXW3 1-757) (natural protein) | 37
2 | Pericentriolar material 1 protein PCM1 (from UniProt Q15154 1-2024) (natural protein) | 73
3 | NudC (from UniProt Q9Y266 1-331) (natural protein) | 52
